In patent US20110086767A1, “MUTANTS OF GLYCOSIDE HYDROLASES AND USES THEREOF FOR SYNTHESIZING COMPLEX OLIGOSACCHARIDES AND DISACCHARIDE INTERMEDIATES” (Institut Pasteur, priority 2008, published 2011):

How the values were obtained:
Assay type in all cases: biochemical
[1] = Kinetics of F290K and ASNPwt in the presence of acceptor α-D-GlcpNAc-OAll
Experimental: (§1) Enzyme assays were carried out in a total volume of 2 mL containing pure enzyme (0.115 mg and 0.106 mg when using ASNPwt and F290K, respectively). Catalytic efficiency (Eff=kcat/KM) of ASNPwt and F290K variant was determined with both sucrose (D=Donor) and α-D-GlcpNAc-OAll (A=Acceptor) as variable substrates. For the determination of the catalytic efficiency for D, A was held constant at 250 mM and D was varied between 0 and 600 mM. For the determination of the catalytic efficiency for A, D was held constant at 250 mM and A was varied between 0 and 250 mM. Experiments were performed until A and D solubility limits were reached. For each experiment, the reaction velocity corresponding to the acceptor glucosylation was determined by the formation of α-D-Glcp-(1→4)-α-D-GlcpNAc-OAll (called Vi(Dp2)), corresponding to the kinetics of the reaction of interest.
(§2) Initial velocities were fitted to the Michaelis-Menten equation using Sigma-Plot. As saturation was not achieved with the mutant, efficiency was calculated by linear regression analysis of the velocity versus substrate concentration plot. Aliquots (200 μL) were removed between 0 and 60 min (at which time product formation was still linear with respect to time), heated at 95° C. for 5 min and centrifuged at 18 000 g for 5 min. The final mixtures were filtered on a 0.22 um membrane and analyzed using HPLC material previously described. […]

[2] = Kinetics of F290K and ASNPwt towards sucrose
Experimental: as §1, with “For the determination of the catalytic efficiency for D, A was held constant at 250 mM and D was varied between 0 and 600 mM.” left out
as §2

[3] = Enzymatic glucosylation of D-GlcpNAc derivatives: β-D-GlcpNAc-OAll; details: sucrose:acceptor 1:1 (146 mM); estimated according to peak areas
Experimental: (§3) The mutant F290K and the ASNPwt were tested on other D-GlcNAc derivatives (α-D-GlcpNAc-OMe, β-D-GlcpNAc-OMe, β-D-GlcpNAc-Oallyl and D-GlcNHTCA) used as potential acceptors. The enzymatic reaction was carried out using sucrose as donor and D-GlcNAc derivative as acceptor in a 1:1 ratio (146 mM)
(§4) Efficiency of the glucosylation reaction was evaluated by HPLC analysis of the acceptor reaction product synthesized a Biorad HPLC Carbohydrate Analysis column (HPX-87K column (300×7.8 mm))
(§5) Percentages of glucosylation rates were estimated according to peak areas as no reference was available.

[4] = HPLC screening of the single-mutant amylosucrase library for glucosylation of D-GlcpNAc; details: acceptor D-GlcpNAc
Experimental: The protocol was established to enable the rapid identification of clones for which D-GlcpNAc glucosylation was improved. To obtain higher amounts of enzymes and facilitate detection of glucosylated compounds upon HPLC screening, mutants were produced in 96-DeepWell Format plates. Storage microplates containing monomutants were thawed and replicated to inoculate a starter culture in 96-well microplates containing, in each well, 150 μL LB medium supplemented with ampicillin (100 μg/mL). After growth for 24 h at 30° C. under agitation (200 rpm), plates were duplicated into 96-Deep Well plates containing, in each well, 1.1 mL LB medium supplemented with ampicillin (100 μg/mL) and IPTG (1 mM) to induce GST-AS expression. Cultures were then grown for 24 h at 30° C. under agitation (200 rpm). Plates were centrifuged (20 min, 3000 g, 4° C.) and the supernatant was removed. The cell pellet was resuspended in 200 μL of lysozyme (0.5 mg/mL), followed by freezing at −80° C. for 8 to 12 h. After thawing at room temperature, 100 μL of sucrose and 100 μL of acceptor (each at a final concentration of 73 mM) were added to each well. Enzymatic reaction was incubated at 30° C. during 24 h under agitation. The DeepWell plates were then centrifuged (20 min, 3000 g, 4° C.) and 300 μL of the supernatant was transferred to a filter micro-plate (PVDF 0.2 μm) to be clarified. […]
Efficiency of the glucosylation reaction was evaluated by HPLC analysis of the acceptor reaction product synthesized when using D-GlcpNAc as acceptor using a Dionex P 680 series pump, a Shodex RI 101 series refractometer, a Dionex UVD 340 UV/Vis detector and an autosampler HTC PAL. […]
For each of the 7 selected positions, 19 single mutants were generated (corresponding to each possible amino acid change). […] Both sucrose consumption and disaccharide formation were determined in order to calculate the glucosylation rate defined as the molar ratio of monoglucosylated acceptor versus/sucrose consumed.

[5] = Enzymatic glucosylation of D-GlcpNAc derivatives: α-D-GlcpNAc-OMe; details: sucrose:acceptor 1:1 (146 mM); estimated according to peak areas
Experimental: as §3, §4, §5

B1: F290K: single mutant F290K of N. polysaccharea amylosucrase 1G5A (protein)
chain: SPNSQYLKTRILDIYTPEQRAGIEKSEDWRQFSRRMDTHFPKLMNELDSVYGNNEALLPMLEMLLAQAWQSYSQRNSSLKDIDIARENNPDWILSNKQVGGVCYVDLFAGDLKGLKDKIPYFQELGLTYLHLMPLFKCPEGKSDGGYAVSSYRDVNPALGTIGDLREVIAALHEAGISAVVDFIFNHTSNEHEWAQRCAAGDPLFDNFYYIFPDRRMPDQYDRTLREIFPDQHPGGFSQLEDGRWVWTTFNSFQWDLNYSNPWVFRAMAGEMLFLANLGVDILRMDAVAKIWKQMGTSCENLPQAHALIRAFNAVMRIAAPAVFFKSEAIVHPDQVVQYIGQDECQIGYNPLQMALLWNTLATREVNLLHQALTYRHNLPEHTAWVNYVRSHDDIGWTFADEDAAYLGISGYDHRQFLNRFFVNRFDGSFARGVPFQYNPSTGDCRVSGTAAALVGLAQDDPHAVDRIKLLYSIALSTGGLPLIYLGDEVGTLNDDDWSQDSNKSDDSRWAHRPRYNEALYAQRNDPSTAAGQIYQDLRHMIAVRQSNPRFDGGRLVTFNTNNKHIIGYIRNNALLAFGNFSEYPQTVTAHTLQAMPFKAHDLIGGKTVSLNQDLTLQPYQVMWLEIA
For B1, which “increase of the efficiency of the mutant compared to ASNPwt” value [1] is on record?
The value was 130 fold.

And the “decrease of kcat/Km in the presence of sucrose alone” value ([2]; sucrose alone, compared with ASNPwt, linear regression)?
Its value is 40 fold.

What about the saturation with sucrose ([2]; sucrose varied between 0 and 600 mM) of the same molecule?
The saturation with sucrose was “could not be saturated”.

And the “glucosylation of acceptor β-D-GlcpNAc-OAll” value [3]?
Its value is > 95%.

And the “increase of glucosylation rate compared to the wild type” value [4]?
The value was 45 fold.

What about the “glucosylation of acceptor α-D-GlcpNAc-OMe” value [5] of the same molecule?
Its value is > 95%.
